Results taken from article PMC10692916, “Protein arginine N-methyltransferase 2 plays a noncatalytic role in the histone methylation activity of PRMT1” (The Journal of Biological Chemistry, 2023).
Each block holds one binder with its values, some of them ahead of it.

Tests used:
[1] = target: Protein arginine N-methyltransferase 1 (PRMT1) (human) (UniProt Q99873)
[2] = target: the molecule itself; experiment: native gel or EMSA; mCer-PRMT1 and mCit-PRMT2, 1 uM each, alone or mixed, 1 h at 37 °C in methylation buffer without SAH or H3 peptide; 4-20% native PAGE, fluorescence imaging
[3] = target: T1, Protein arginine N-methyltransferase 2 (PRMT2), full-length, wild type (human, UniProt P55345-1 1-433); experiment: differential scanning fluorimetry; 5 uM PRMT2, PRMT2ΔSH3 or PRMT2H112Q with 0-500 uM peptide, 7.5x SYPRO Orange, 50 mM Hepes pH 8.0, 10 mM NaCl, 1.0 mM DTT; 30 min at room temperature, heated 25-80 °C; KD from Tm against ligand concentration, single site model; details: both partners purified
T1 construct: PRMT2, human, UniProt P55345-1 as printed; cloned in pET28a(+); also called WT PRMT2; native PRMT2; source: E. coli Arctic Express (DE3), purified (Ni-NTA, Superdex 200 SEC)
T1 sequence (looked up): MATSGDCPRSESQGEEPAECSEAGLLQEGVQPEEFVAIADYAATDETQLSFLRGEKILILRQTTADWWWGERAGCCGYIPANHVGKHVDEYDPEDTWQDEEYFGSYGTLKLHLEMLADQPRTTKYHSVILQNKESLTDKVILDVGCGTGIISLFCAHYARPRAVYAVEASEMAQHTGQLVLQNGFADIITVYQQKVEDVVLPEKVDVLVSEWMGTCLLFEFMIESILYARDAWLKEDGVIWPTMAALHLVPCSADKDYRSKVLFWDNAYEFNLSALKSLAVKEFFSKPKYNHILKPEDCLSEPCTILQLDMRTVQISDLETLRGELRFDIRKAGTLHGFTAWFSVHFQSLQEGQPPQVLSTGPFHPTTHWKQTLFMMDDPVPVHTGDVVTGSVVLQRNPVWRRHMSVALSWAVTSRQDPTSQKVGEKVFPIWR

Chain of Protein arginine N-methyltransferase 1 (PRMT1) (human) (Q99873 other isoform, or with tags, fused parts or gaps): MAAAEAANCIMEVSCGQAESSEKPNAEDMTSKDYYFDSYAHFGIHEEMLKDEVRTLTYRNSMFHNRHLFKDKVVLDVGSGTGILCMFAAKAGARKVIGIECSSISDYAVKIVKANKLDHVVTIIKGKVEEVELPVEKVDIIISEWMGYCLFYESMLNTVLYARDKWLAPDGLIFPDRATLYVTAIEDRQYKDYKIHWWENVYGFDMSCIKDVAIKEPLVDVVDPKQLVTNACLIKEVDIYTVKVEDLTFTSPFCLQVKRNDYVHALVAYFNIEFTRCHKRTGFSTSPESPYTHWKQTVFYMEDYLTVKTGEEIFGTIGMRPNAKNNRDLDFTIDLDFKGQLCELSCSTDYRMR

methylation signal of histone H2A at 50 ug/ml calf thymus histones, PRMT1 100 nM with 10-fold excess of PRMT2, densitometry of phosphor images [1]: 3 fold
B1: Protein arginine N-methyltransferase 2 (PRMT2), full-length, wild type (enzyme)
chain: MATSGDCPRSESQGEEPAECSEAGLLQEGVQPEEFVAIADYAATDETQLSFLRGEKILILRQTTADWWWGERAGCCGYIPANHVGKHVDEYDPEDTWQDEEYFGSYGTLKLHLEMLADQPRTTKYHSVILQNKESLTDKVILDVGCGTGIISLFCAHYARPRAVYAVEASEMAQHTGQLVLQNGFADIITVYQQKVEDVVLPEKVDVLVSEWMGTCLLFEFMIESILYARDAWLKEDGVIWPTMAALHLVPCSADKDYRSKVLFWDNAYEFNLSALKSLAVKEFFSKPKYNHILKPEDCLSEPCTILQLDMRTVQISDLETLRGELRFDIRKAGTLHGFTAWFSVHFQSLQEGQPPQVLSTGPFHPTTHWKQTLFMMDDPVPVHTGDVVTGSVVLQRNPVWRRHMSVALSWAVTSRQDPTSQKVGEKVFPIWR

B2: mCit-PRMT2 (mCitrine fusion of PRMT2) (enzyme, human, UniProt P55345-1 1-433, looked up)
chain: MATSGDCPRSESQGEEPAECSEAGLLQEGVQPEEFVAIADYAATDETQLSFLRGEKILILRQTTADWWWGERAGCCGYIPANHVGKHVDEYDPEDTWQDEEYFGSYGTLKLHLEMLADQPRTTKYHSVILQNKESLTDKVILDVGCGTGIISLFCAHYARPRAVYAVEASEMAQHTGQLVLQNGFADIITVYQQKVEDVVLPEKVDVLVSEWMGTCLLFEFMIESILYARDAWLKEDGVIWPTMAALHLVPCSADKDYRSKVLFWDNAYEFNLSALKSLAVKEFFSKPKYNHILKPEDCLSEPCTILQLDMRTVQISDLETLRGELRFDIRKAGTLHGFTAWFSVHFQSLQEGQPPQVLSTGPFHPTTHWKQTLFMMDDPVPVHTGDVVTGSVVLQRNPVWRRHMSVALSWAVTSRQDPTSQKVGEKVFPIWR
notes: PRMT2, human, UniProt P55345-1 printed for PRMT2 in the same sentence; cloned in pET28a(+); also called mCitrine-PRMT2; source: E. coli Arctic Express (DE3), purified (Ni-NTA, Superdex 200 SEC)
binding result [2]: binds

B3: Histone H4 peptide (Ac-SGRGKGGKGLGKGGAKR) (peptide)
peptide: SGRGKGGKGLGKGGAKR
modifications: N-terminal acetylation
notes: N-terminal tail of histone H4; source: synthetic peptide, bought: Canada Peptide
ΔTm at 500 μM peptide [3]: 5.87 °C
